The Kd is the equilibrium constant for the complex coming apart.

Test [1] concerns the target Crn1p (coronin1p), full-length recombinant (amino acids 1–651) (S. cerevisiae) (UniProt Q06440). In words: co-sedimentation.
The target of test [2] is taxol-stabilized bovine brain microtubules (tubulin) (bovine) (UniProt Q6B856). Nature of the test: co-sedimentation.

On to “taxol-stabilized bovine brain microtubules (tubulin) (from UniProt Q6B856 1-445) (complex)”, for which the Kd in test [1] was determined as 2000 nM.

B1: Crn1p (coronin1p), full-length recombinant (amino acids 1–651) (natural protein)
chain: MSGKFVRASKYRHVFGQAAKKELQYEKLKVTNNAWDSNLLKTNGKFIAVNWNASGGGAFAVIPIEEVGKAPDQVPLFRGHTAQVLDTDFDPFNDHRIASGSDDSKIGIWDIPENYKFHDHVDEDGEPIDIKPVKFLTGHARKVGHVLYHPVAENVLASSSGDYTVKLWNVETGKDMITLKHPDMVTSMSFSYDGNYLATVARDKKLRVWNIREEKIVSEGPAHTGAKNQRVVWLGNSDRLATTGFSKLSDRQIGIWDAFNIEKGDLGGFYTVDQSSGILMPFYDEGNKILYLVGKGDGNIRYYEFQNDELFELSEFQSTEAQRGFAVAPKRMVNVKENEVLKGFKTVVDQRIEPVSFFVPRRSEEFQEDIYPDAPSNKPALTAEEWFSGKSVEGPILVSMRSIYDGSAPSFHEAKRPQQPTTQETALEEKKEQPKVEKPISESEKEVKQEAPKSPSPLKSASSSSTINHVLKEDNSINKLLKKSSDIDQVNNAEDPSRDTSGWEEADDEPAPIKIETPVTPTETKKDRTPKVEPSKELKPEPVSIATDRKQEQSLPQEEKSSEKTKSPEQEKSATPPSSITAAKTAITASSKEEPSAARTSPKSLGLKKSVEKLSTLVLQLEDVVDKLTKANLDKDERLLKLEQKIGELSK
Regarding B1, in test [2], the Kd fell in the range of 15 to 20 µM, the percent of Crn1p bound at 2 μM microtubules came out at 20% and the percent of Crn1p bound at 10 μM microtubules was determined as 40%.

The values above are taken from publication PMC2148128.
